According to PMC9482650, “Quantitative fragmentomics allow affinity mapping of interactomes” (Nature Communications, 2022):
Each block holds one binder with its values, some of them ahead of it.

Experiments:
Assay in all cases: holdup assay
Parameters in all cases: key: below the threshold = too weak to quantify, mostly under pKd 3.1 to 4
GRIP1_2, Q9Y3R0 = target: T1, GRIP1_2, Q9Y3R0
T1 sequence (Q9Y3R0 145-248, limits assumed, looked up): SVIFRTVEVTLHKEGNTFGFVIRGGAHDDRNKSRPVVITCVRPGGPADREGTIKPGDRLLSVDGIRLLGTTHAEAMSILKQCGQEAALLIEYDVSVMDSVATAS

CASK, O14936 = target: CASK, O14936
Chain of CASK, O14936 (O14936 487-570): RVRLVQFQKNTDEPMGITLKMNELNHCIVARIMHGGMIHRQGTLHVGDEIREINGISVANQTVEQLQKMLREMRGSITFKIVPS

NHERF3_3, Q5T2W1 = target: T2, NHERF3_3, Q5T2W1
T2 sequence (Q5T2W1 238-333, limits assumed, looked up): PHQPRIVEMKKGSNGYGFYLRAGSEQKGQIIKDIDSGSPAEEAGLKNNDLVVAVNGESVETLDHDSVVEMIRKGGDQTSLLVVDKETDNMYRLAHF

MAST1, Q9Y2H9 = target: MAST1, Q9Y2H9
Chain of MAST1, Q9Y2H9 (Q9Y2H9 962-1065): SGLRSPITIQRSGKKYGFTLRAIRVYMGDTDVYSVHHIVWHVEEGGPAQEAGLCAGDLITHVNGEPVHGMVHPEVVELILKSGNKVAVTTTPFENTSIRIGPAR

APBA1_2, Q02410 = target: T3, APBA1_2, Q02410
T3 sequence (Q02410 742-832, limits assumed, looked up): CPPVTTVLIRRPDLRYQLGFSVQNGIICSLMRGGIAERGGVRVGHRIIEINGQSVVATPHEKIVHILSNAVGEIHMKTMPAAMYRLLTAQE

LNX1_2, Q8TBB1 = target: LNX1_2, Q8TBB1
Chain of LNX1_2, Q8TBB1 (Q8TBB1 371-470): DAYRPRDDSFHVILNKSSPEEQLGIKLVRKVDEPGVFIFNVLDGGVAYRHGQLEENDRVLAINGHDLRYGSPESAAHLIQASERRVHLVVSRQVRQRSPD

CARD11, Q9BXL7 = target: T4, CARD11, Q9BXL7
T4 sequence (Q9BXL7 662-765, limits assumed, looked up): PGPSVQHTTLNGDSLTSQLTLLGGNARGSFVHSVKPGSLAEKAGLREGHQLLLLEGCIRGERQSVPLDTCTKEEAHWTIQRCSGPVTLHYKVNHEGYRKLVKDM

GRASP, Q7Z6J2 = target: GRASP, Q7Z6J2
Chain of GRASP, Q7Z6J2 (Q7Z6J2 96-193): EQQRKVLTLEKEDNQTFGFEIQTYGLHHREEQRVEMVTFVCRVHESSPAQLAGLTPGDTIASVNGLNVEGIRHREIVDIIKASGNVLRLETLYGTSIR

AHNAK1, Q09666 = target: AHNAK1, Q09666
Chain of AHNAK1, Q09666 (Q09666 4-100): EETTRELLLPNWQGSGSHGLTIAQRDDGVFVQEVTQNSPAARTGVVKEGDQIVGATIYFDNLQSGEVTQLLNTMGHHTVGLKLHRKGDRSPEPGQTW

PTPN13_1, Q12923 = target: T5, PTPN13_1, Q12923
T5 sequence (Q12923 1088-1188, limits assumed, looked up): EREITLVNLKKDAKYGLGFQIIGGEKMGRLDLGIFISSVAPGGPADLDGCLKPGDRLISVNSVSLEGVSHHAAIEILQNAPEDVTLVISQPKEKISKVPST

HTRA2, O43464 = target: HTRA2, O43464
Chain of HTRA2, O43464 (O43464 355-458): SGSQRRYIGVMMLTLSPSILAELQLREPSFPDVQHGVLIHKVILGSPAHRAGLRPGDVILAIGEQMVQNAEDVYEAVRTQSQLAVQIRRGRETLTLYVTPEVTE

PDZD7_3, Q9H5P4 = target: T6, PDZD7_3, Q9H5P4
T6 sequence (Q9H5P4 857-944, limits assumed, looked up): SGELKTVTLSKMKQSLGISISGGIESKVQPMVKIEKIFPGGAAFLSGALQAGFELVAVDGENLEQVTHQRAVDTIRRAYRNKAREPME

TJP1_2, Q07157 = target: TJP1_2, Q07157
Chain of TJP1_2, Q07157 (Q07157 181-274): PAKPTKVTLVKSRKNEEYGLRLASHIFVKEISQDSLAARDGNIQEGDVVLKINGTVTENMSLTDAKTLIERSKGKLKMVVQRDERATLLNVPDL

MAGI2_5, Q86UL8 = target: MAGI2_5, Q86UL8
Chain of MAGI2_5, Q86UL8 (Q86UL8 915-1017): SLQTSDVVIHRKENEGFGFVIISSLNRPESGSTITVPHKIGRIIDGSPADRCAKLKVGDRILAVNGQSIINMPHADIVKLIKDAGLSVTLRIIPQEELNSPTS

Inadl_5, Q8NI35 = target: Inadl_5, Q8NI35
Chain of Inadl_5, Q8NI35 (Q8NI35 673-780): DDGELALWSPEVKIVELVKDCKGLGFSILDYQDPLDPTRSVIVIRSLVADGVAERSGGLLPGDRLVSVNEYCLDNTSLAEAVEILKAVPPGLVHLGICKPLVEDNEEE

Inadl_3, Q8NI35 = target: Inadl_3, Q8NI35
Chain of Inadl_3, Q8NI35 (Q8NI35 359-469): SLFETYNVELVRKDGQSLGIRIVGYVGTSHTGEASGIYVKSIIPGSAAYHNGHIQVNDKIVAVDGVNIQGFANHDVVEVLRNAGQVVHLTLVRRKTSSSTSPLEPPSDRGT

RADIL, Q96JH8 = target: T7, RADIL, Q96JH8
T7 sequence (Q96JH8 971-1071, limits assumed, looked up): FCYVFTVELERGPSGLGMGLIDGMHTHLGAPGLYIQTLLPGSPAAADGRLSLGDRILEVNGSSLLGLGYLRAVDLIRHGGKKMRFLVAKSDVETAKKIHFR

APBA3_1, O96018 = target: T8, APBA3_1, O96018
T8 sequence (O96018 389-490, limits assumed, looked up): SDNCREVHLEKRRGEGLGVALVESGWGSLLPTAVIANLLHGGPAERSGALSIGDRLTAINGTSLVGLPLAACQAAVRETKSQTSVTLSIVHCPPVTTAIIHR

MPDZ_12, O75970 = target: T9, MPDZ_12, O75970
T9 sequence (O75970 1857-1958, limits assumed, looked up): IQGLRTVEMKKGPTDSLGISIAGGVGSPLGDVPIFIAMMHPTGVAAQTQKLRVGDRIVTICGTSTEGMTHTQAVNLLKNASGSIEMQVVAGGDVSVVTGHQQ

APBA2_1, Q99767 = target: T10, APBA2_1, Q99767
T10 sequence (Q99767 563-664, limits assumed, looked up): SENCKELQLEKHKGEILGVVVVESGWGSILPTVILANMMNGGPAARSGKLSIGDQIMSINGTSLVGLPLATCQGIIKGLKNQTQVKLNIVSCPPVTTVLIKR

LNX2_2, Q8N448 = target: T11, LNX2_2, Q8N448
T11 sequence (Q8N448 334-432, limits assumed, looked up): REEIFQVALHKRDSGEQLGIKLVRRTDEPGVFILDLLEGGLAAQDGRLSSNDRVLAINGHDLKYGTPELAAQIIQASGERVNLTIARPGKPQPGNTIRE

GORASP1, Q9BQQ3 = target: GORASP1, Q9BQQ3
Chain of GORASP1, Q9BQQ3 (Q9BQQ3 1-208): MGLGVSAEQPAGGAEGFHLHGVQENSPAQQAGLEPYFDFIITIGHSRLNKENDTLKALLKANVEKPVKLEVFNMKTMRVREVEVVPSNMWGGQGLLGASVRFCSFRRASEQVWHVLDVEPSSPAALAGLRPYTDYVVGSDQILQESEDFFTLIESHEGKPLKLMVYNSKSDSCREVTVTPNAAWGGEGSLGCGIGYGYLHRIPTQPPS

GRIP1_4, Q9Y3R0 = target: T12, GRIP1_4, Q9Y3R0
T12 sequence (Q9Y3R0 467-571, limits assumed, looked up): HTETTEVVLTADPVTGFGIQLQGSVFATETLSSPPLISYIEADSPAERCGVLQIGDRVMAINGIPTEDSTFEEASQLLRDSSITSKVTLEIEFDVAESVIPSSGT

MPP7, Q5T2T1 = target: T13, MPP7, Q5T2T1
T13 sequence (Q5T2T1 134-230, limits assumed, looked up): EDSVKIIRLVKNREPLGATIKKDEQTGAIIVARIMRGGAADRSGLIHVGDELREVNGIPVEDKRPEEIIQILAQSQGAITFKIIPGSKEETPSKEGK

[1] = plain residues with an end cap or a label only (N-terminal biotin on a linker: ahx)
[2] = plain residues with an end cap or a label only (N-terminal biotin on a linker: ttds)
[3] = plain residues with an end cap or a label only (N-terminal biotin on a linker: ado-ado)

- pKd (GRIP1_2, Q9Y3R0; [1]): below the threshold
- pKd (CASK, O14936; [1]): below the threshold
- pKd (NHERF3_3, Q5T2W1; [1]): below the threshold
- pKd (MAST1, Q9Y2H9; [1]): 3.98
- pKd (APBA1_2, Q02410; [1]): below the threshold
- pKd (LNX1_2, Q8TBB1; [1]): 4.23
- pKd (CARD11, Q9BXL7; [1]): below the threshold
- pKd (GRASP, Q7Z6J2; [1]): 4.15
- pKd (AHNAK1, Q09666; [1]): 3.53
- pKd (PTPN13_1, Q12923; [1]): below the threshold
- pKd (HTRA2, O43464; [1]): 3.48
- pKd (PDZD7_3, Q9H5P4; [1]): 5.58
- pKd (TJP1_2, Q07157; [1]): below the threshold
- pKd (MAGI2_5, Q86UL8; [1]): 3.9
- pKd (Inadl_5, Q8NI35; [1]): below the threshold
- pKd (Inadl_3, Q8NI35; [1]): 3.76
- pKd (RADIL, Q96JH8; [1]): 4.2
- pKd (APBA3_1, O96018; [1]): below the threshold
- pKd (MPDZ_12, O75970; [1]): below the threshold
- pKd (APBA2_1, Q99767; [1]): below the threshold
- pKd (LNX2_2, Q8N448; [1]): 4.94
- pKd (GORASP1, Q9BQQ3; [1]): 3.8
- pKd (GRIP1_4, Q9Y3R0; [1]): below the threshold
- pKd (MPP7, Q5T2T1; [1]): below the threshold
Binder: YNSFLSVTTV [PDZRN3, Q9UPQ7]

- pKd (GRIP1_2, Q9Y3R0; [2]): below the threshold
- pKd (CASK, O14936; [2]): below the threshold
- pKd (NHERF3_3, Q5T2W1; [2]): below the threshold
- pKd (MAST1, Q9Y2H9; [2]): 4.68
- pKd (APBA1_2, Q02410; [2]): below the threshold
- pKd (LNX1_2, Q8TBB1; [2]): 3.66
- pKd (CARD11, Q9BXL7; [2]): below the threshold
- pKd (GRASP, Q7Z6J2; [2]): 3.51
- pKd (AHNAK1, Q09666; [2]): below the threshold
- pKd (PTPN13_1, Q12923; [2]): below the threshold
- pKd (HTRA2, O43464; [2]): below the threshold
- pKd (PDZD7_3, Q9H5P4; [2]): 4.39
- pKd (TJP1_2, Q07157; [2]): below the threshold
- pKd (MAGI2_5, Q86UL8; [2]): 3.77
- pKd (Inadl_5, Q8NI35; [2]): below the threshold
- pKd (Inadl_3, Q8NI35; [2]): below the threshold
- pKd (RADIL, Q96JH8; [2]): below the threshold
- pKd (APBA3_1, O96018; [2]): below the threshold
- pKd (MPDZ_12, O75970; [2]): below the threshold
- pKd (APBA2_1, Q99767; [2]): below the threshold
- pKd (LNX2_2, Q8N448; [2]): 4.48
- pKd (GORASP1, Q9BQQ3; [2]): below the threshold
- pKd (GRIP1_4, Q9Y3R0; [2]): below the threshold
- pKd (MPP7, Q5T2T1; [2]): below the threshold
Binder: KLVIKTETTV [RASSF6, Q6ZTQ3]

- pKd (GRIP1_2, Q9Y3R0; [3]): below the threshold
- pKd (CASK, O14936; [3]): below the threshold
- pKd (NHERF3_3, Q5T2W1; [3]): below the threshold
- pKd (MAST1, Q9Y2H9; [3]): below the threshold
- pKd (APBA1_2, Q02410; [3]): below the threshold
- pKd (LNX1_2, Q8TBB1; [3]): below the threshold
- pKd (CARD11, Q9BXL7; [3]): below the threshold
- pKd (GRASP, Q7Z6J2; [3]): below the threshold
- pKd (AHNAK1, Q09666; [3]): below the threshold
- pKd (PTPN13_1, Q12923; [3]): below the threshold
- pKd (HTRA2, O43464; [3]): below the threshold
- pKd (PDZD7_3, Q9H5P4; [3]): below the threshold
- pKd (TJP1_2, Q07157; [3]): below the threshold
- pKd (MAGI2_5, Q86UL8; [3]): below the threshold
- pKd (Inadl_5, Q8NI35; [3]): below the threshold
- pKd (Inadl_3, Q8NI35; [3]): below the threshold
- pKd (RADIL, Q96JH8; [3]): below the threshold
- pKd (APBA3_1, O96018; [3]): below the threshold
- pKd (MPDZ_12, O75970; [3]): below the threshold
- pKd (APBA2_1, Q99767; [3]): below the threshold
- pKd (LNX2_2, Q8N448; [3]): below the threshold
- pKd (GORASP1, Q9BQQ3; [3]): below the threshold
- pKd (GRIP1_4, Q9Y3R0; [3]): below the threshold
- pKd (MPP7, Q5T2T1; [3]): below the threshold
Binder: DAAHHDESNC [FMNL3, Q8IVF7]
